Numbered stars: 1 amine (or outer) side, 2 acyl side, 3 side chain; on linkers, the order of the positions; unused ones are H or OH. Square brackets hold non-standard residues; d marks the D form. Side chains are listed from the residue outwards. Ends that are not written are not given here. * marks the point of attachment. C18 diacid = O=C(O)CCCCCCCCCCCCCCCCC(=O)*; αMePhe(2-F) = C[C@](N)(Cc1ccccc1F)C(=O)O; γGlu = O=C(O)[C@H](CCC(=O)[*:2])N[*:1]; αMeL = CC(C)C[C@](C)(N)C(=O)O; AEEA = NCCOCCOCC(=O)O; Aib = CC(C)(N)C(=O)O
Target: T1, human gastric inhibitory peptide receptor (hGIPR) (Homo sapiens, UniProt P48546)
T1 construct: expressed in transfected cells; host or cells: HEK293
T1 sequence (P48546 22-466): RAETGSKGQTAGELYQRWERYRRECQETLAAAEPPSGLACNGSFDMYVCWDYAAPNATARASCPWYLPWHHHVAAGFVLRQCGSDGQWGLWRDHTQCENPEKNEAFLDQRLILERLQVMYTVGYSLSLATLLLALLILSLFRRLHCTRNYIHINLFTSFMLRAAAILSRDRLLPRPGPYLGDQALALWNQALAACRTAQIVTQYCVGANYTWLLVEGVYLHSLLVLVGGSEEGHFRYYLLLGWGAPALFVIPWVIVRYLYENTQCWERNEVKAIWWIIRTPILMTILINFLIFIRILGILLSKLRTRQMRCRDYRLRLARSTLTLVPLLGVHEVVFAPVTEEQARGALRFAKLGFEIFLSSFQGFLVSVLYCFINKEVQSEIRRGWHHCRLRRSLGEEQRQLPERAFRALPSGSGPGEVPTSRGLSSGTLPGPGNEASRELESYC
Assay: cAMP pharmacological functional assay in presence of 0.1% casein, hGIPR
Type: cell-based
Conditions: ratio of hGIPR to hGLP1R cAMP EC50 ratios

Substance | [hGIPR/hGLP1R] EC50 Ratio
Y-Aib-EGT-αMeF(2F)-TSDHSI-αMeL-LDEK((2-[2-(2-Amino-ethoxy)-ethoxy]-acetyl)2-(γGlu)-CO—(CH2)16—CO2H)AQ-Aib-HFI-(D-Glu)-YLIEGG-NH2 (Y[Aib]EGT[αMePhe(2-F)]TSDHSI[αMeL]LDEK([AEEA-AEEA-γGlu-C18 diacid])AQ[Aib]HFI[dE]YLIEGG-NH2; N-terminus assumed; SMILES CC[C@H](C)[C@H](NC(=O)[C@H](CC(C)C)NC(=O)[C@H](Cc1ccc(O)cc1)NC(=O)[C@@H](CCC(=O)O)NC(=O)[C@@H](NC(=O)[C@H](Cc1ccccc1)NC(=O)[C@H](Cc1c[nH]cn1)NC(=O)C(C)(C)NC(=O)[C@H](CCC(N)=O)NC(=O)[C@H](C)NC(=O)[C@H](CCCCNC(=O)COCCOCCNC(=O)COCCOCCNC(=O)CC[C@H](NC(=O)CCCCCCCCCCCCCCCCC(=O)O)C(=O)O)NC(=O)[C@H](CCC(=O)O)NC(=O)[C@H](CC(=O)O)NC(=O)[C@H](CC(C)C)NC(=O)[C@](C)(CC(C)C)NC(=O)[C@@H](NC(=O)[C@H](CO)NC(=O)[C@H](Cc1c[nH]cn1)NC(=O)[C@H](CC(=O)O)NC(=O)[C@H](CO)NC(=O)[C@@H](NC(=O)[C@](C)(Cc1ccccc1F)NC(=O)[C@@H](NC(=O)CNC(=O)[C@H](CCC(=O)O)NC(=O)C(C)(C)NC(=O)[C@@H](N)Cc1ccc(O)cc1)[C@@H](C)O)[C@@H](C)O)[C@@H](C)CC)[C@@H](C)CC)C(=O)N[C@@H](CCC(=O)O)C(=O)NCC(=O)NCC(N)=O) [Peptide 180] | 6.27
Y-Aib-EGT-αMeF(2F)-TSDHSI-αMeL-LDEK((2-[2-(2-Amino-ethoxy)-ethoxy]-acetyl)2-(γGlu)-CO—(CH2)16—CO2H)AQ-Aib-HFI-(D-Glu)-YLIEGGPSSG-NH2 (Y[Aib]EGT[αMePhe(2-F)]TSDHSI[αMeL]LDEK([AEEA-AEEA-γGlu-C18 diacid])AQ[Aib]HFI[dE]YLIEGGPSSG-NH2; N-terminus assumed; SMILES CC[C@H](C)[C@H](NC(=O)[C@H](CC(C)C)NC(=O)[C@H](Cc1ccc(O)cc1)NC(=O)[C@@H](CCC(=O)O)NC(=O)[C@@H](NC(=O)[C@H](Cc1ccccc1)NC(=O)[C@H](Cc1c[nH]cn1)NC(=O)C(C)(C)NC(=O)[C@H](CCC(N)=O)NC(=O)[C@H](C)NC(=O)[C@H](CCCCNC(=O)COCCOCCNC(=O)COCCOCCNC(=O)CC[C@H](NC(=O)CCCCCCCCCCCCCCCCC(=O)O)C(=O)O)NC(=O)[C@H](CCC(=O)O)NC(=O)[C@H](CC(=O)O)NC(=O)[C@H](CC(C)C)NC(=O)[C@](C)(CC(C)C)NC(=O)[C@@H](NC(=O)[C@H](CO)NC(=O)[C@H](Cc1c[nH]cn1)NC(=O)[C@H](CC(=O)O)NC(=O)[C@H](CO)NC(=O)[C@@H](NC(=O)[C@](C)(Cc1ccccc1F)NC(=O)[C@@H](NC(=O)CNC(=O)[C@H](CCC(=O)O)NC(=O)C(C)(C)NC(=O)[C@@H](N)Cc1ccc(O)cc1)[C@@H](C)O)[C@@H](C)O)[C@@H](C)CC)[C@@H](C)CC)C(=O)N[C@@H](CCC(=O)O)C(=O)NCC(=O)NCC(=O)N1CCC[C@H]1C(=O)N[C@@H](CO)C(=O)N[C@@H](CO)C(=O)NCC(N)=O) [Peptide 179] | 3.40
Y-Aib-EGT-αMeF(2F)-TSDHSI-αMeL-LDEK((2-[2-(2-Amino-ethoxy)-ethoxy]-acetyl)2-(γGlu)-CO—(CH2)16—CO2H)AQ-Aib-TFI-(D-Glu)-YLIEGGPSSGAPPPS-NH2 (YXEGTXTSDHSIXLDEKAQXTFIXYLIEGGPSSGAPPPS; Aib, αMeF(2F), αMeL, D-Glu; C18 diacid lipidated K; amide; (2)..(2) Xaa at position 2 is Aib; (6)..(6) Xaa at position 6 is alpha-methyl-Phe(2F); (13)..(13) Xaa at position 13 is alpha-methyl-Leu; MOD_RES (17)..(17) Lys at position 17 is chemically modified by conjugation of the epsilon-amino group of the Lys side chain with (2-[2-(2-amino-ethoxy)-ethoxy]-acetyl)2-(gamma-Glu)-CO-(CH2)16- CO2H; (20)..(20) Xaa at position 20 is Aib; (24)..(24) Xaa at positi) [Peptide 169] | 8.97
